Results taken from patent US20250154231A1.

Columns and labels:
Assay in all cases: cell-based or functional assay
[1] = biological target: SARS-CoV-2 spike (S) protein, Omicron BA.1 (SARS-CoV-2) (UniProt P0DTC2)
[2] = biological target: SARS-CoV-2 spike (S) protein, Omicron BA.2.75 (SARS-CoV-2) (UniProt P0DTC2)
[3] = biological target: SARS-CoV-2 spike (S) protein, Omicron BA.3 (SARS-CoV-2) (UniProt P0DTC2)
[4] = biological target: SARS-CoV-2 spike (S) protein, Victoria strain (SARS-CoV-2) (UniProt P0DTC2)
[5] = biological target: SARS-CoV-2 spike (S) protein, Omicron BA.2 (SARS-CoV-2) (UniProt P0DTC2)
[6] = biological target: SARS-CoV-2 spike (S) protein, Omicron BA.1.1 (SARS-CoV-2) (UniProt P0DTC2)
[7] = biological target: SARS-CoV-2 spike (S) protein, Omicron BA.4/5 (SARS-CoV-2) (UniProt P0DTC2)
[8] = biological target: SARS-CoV-2 spike (S) protein, Omicron BA.1 (SARS-CoV-2) (UniProt P0DTC2); remark: listed apart in the source
[9] = biological target: SARS-CoV-2 spike (S) protein, Omicron BA.3 (SARS-CoV-2) (UniProt P0DTC2); remark: listed apart in the source
[10] = biological target: SARS-CoV-2 spike (S) protein, Omicron BA.4.6 (SARS-CoV-2) (UniProt P0DTC2)
[11] = biological target: SARS-CoV-2 spike (S) protein, Victoria strain (SARS-CoV-2) (UniProt P0DTC2); remark: listed apart in the source
[12] = biological target: SARS-CoV-2 spike (S) protein, Omicron BA.2 (SARS-CoV-2) (UniProt P0DTC2); remark: listed apart in the source
[13] = biological target: SARS-CoV-2 spike (S) protein, Omicron BA.1.1 (SARS-CoV-2) (UniProt P0DTC2); remark: listed apart in the source
[14] = biological target: SARS-CoV-2 spike (S) protein, Omicron BA.4/5 (SARS-CoV-2) (UniProt P0DTC2); remark: listed apart in the source

For Ly-CoV1404 (antibody), the pseudovirus neutralisation IC50 [1] was 2 ng/mL, the pseudovirus neutralisation IC50 [2] was 2 ng/mL and the pseudovirus neutralisation IC50 [3] was 2 ng/mL. It also gave a pseudovirus neutralisation IC50 [4] of 1 ng/mL, a pseudovirus neutralisation IC50 [5] of 1 ng/mL and a pseudovirus neutralisation IC50 [6] of 1 ng/mL. For the same substance, the pseudovirus neutralisation IC50 [7] was 2 ng/mL, the IC50, pseudoviral neutralization [8] was 2 ng/mL and the IC50, pseudoviral neutralization [9] was 2 ng/mL. It also gave an IC50, pseudoviral neutralization [10] of 1 ng/mL, an IC50, pseudoviral neutralization [11] of 1 ng/mL and an IC50, pseudoviral neutralization [12] of 1 ng/mL. For the same substance, the IC50, pseudoviral neutralization [13] was 1 ng/mL and the IC50, pseudoviral neutralization [14] was 2 ng/mL.
